Each block holds one binder with its values, some of them ahead of it. Starred links: 1 amine or outer side, 2 acyl side, 3 side chain; linkers in the order of their positions; H or OH if unused. Positions of bridges follow the written chain, without caps; N, C: chain ends. Non-standard residues stand in square brackets, D forms with d. Primed or numbered codes have the meaning given here. PyrS2″ = (S)-3-amino-1-((pent-4-en-1-yloxy)carbonyl)pyrrolidine-3-carboxylic acid (stapling residue), C=CCCCOC(=O)N1CC[C@@](N[*:1])(C(=O)[*:2])C1; B5(4) = 2,2-bis(4-pentenyl)glycine = 2-amino-2-(pent-4-en-1-yl)hept-6-enoic acid (stitching residue), C=CCCCC(CCCC=C)(N[*:1])C(=O)[*:2]; B5(5) = 2,2-bis(4-pentenyl)glycine, 2-amino-2-(pent-4-en-1-yl)hept-6-enoic acid (stitching residue), C=CCCCC(CCCC=C)(N[*:1])C(=O)[*:2]; B5(6) = 2-amino-2-(pent-4-en-1-yl)hept-6-enoic acid (bis(4-pentenyl)glycine), stitching residue, C=CCCCC(CCCC=C)(N[*:1])C(=O)[*:2]; B5 = 2-amino-2-(pent-4-en-1-yl)hept-6-enoic acid, C=CCCCC(CCCC=C)(N[*:1])C(=O)[*:2]; Phe(3-CF3) = N[C@@H](Cc1cccc(C(F)(F)F)c1)C(=O)O; Phe(3-OMe) = COc1cccc(C[C@H](N)C(=O)O)c1; Phe(2-Cl) = N[C@@H](Cc1ccccc1Cl)C(=O)O; Bta = N[C@@H](Cc1csc2ccccc12)C(=O)O; αAllylPro = C=CC[C@@]1(C(=O)O)CCCN1; tBuAla = CC(C)(C)C[C@H](N)C(=O)O; S8 = C=CCCCCCC[C@](C)(N)C(=O)O
Assays:
[1] = target: T1, full-length beta-Catenin (Uniprot ID P35222) (Homo sapiens (Human), UniProt P35222 2-781); experiment: fluorescence polarization competition; full-length beta-catenin, competitor 5FAM-TCF4(10-53) probe
T1 construct: also called bCat; B-Catenin
T1 sequence: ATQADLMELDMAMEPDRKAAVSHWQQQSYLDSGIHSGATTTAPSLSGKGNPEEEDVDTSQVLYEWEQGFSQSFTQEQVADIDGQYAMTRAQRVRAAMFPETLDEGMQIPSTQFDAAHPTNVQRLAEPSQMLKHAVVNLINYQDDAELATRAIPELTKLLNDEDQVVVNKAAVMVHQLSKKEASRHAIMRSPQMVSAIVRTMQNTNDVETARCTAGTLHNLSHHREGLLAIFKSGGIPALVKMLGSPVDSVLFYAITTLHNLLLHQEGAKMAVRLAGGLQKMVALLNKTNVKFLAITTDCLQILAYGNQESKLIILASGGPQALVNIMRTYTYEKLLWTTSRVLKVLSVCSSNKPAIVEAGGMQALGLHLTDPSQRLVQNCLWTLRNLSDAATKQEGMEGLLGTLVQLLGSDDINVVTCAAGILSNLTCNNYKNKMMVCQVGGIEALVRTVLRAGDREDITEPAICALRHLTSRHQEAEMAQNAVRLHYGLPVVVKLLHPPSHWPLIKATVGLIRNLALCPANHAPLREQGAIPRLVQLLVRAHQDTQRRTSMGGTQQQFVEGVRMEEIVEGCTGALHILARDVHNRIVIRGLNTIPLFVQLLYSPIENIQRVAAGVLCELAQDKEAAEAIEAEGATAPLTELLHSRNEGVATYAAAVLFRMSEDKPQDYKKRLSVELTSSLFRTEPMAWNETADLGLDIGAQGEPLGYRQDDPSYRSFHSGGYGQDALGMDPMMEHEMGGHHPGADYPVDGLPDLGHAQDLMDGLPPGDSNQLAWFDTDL
Summary of the method: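 Data fitted to 1:1 binding model with hill slope from duplicate reads taken after 60 minutes at 20° C. in the dark.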

[2] = target: T2, full-length beta-Catenin (Uniprot ID P35222) (Homo sapiens (Human), UniProt P35222 1-781); experiment: fluorescence polarization competition; full-length beta-catenin with 5FAM-labeled TCF4 residues 10-53 probe as competitor
T2 construct: also called bCat; B-Catenin
T2 sequence: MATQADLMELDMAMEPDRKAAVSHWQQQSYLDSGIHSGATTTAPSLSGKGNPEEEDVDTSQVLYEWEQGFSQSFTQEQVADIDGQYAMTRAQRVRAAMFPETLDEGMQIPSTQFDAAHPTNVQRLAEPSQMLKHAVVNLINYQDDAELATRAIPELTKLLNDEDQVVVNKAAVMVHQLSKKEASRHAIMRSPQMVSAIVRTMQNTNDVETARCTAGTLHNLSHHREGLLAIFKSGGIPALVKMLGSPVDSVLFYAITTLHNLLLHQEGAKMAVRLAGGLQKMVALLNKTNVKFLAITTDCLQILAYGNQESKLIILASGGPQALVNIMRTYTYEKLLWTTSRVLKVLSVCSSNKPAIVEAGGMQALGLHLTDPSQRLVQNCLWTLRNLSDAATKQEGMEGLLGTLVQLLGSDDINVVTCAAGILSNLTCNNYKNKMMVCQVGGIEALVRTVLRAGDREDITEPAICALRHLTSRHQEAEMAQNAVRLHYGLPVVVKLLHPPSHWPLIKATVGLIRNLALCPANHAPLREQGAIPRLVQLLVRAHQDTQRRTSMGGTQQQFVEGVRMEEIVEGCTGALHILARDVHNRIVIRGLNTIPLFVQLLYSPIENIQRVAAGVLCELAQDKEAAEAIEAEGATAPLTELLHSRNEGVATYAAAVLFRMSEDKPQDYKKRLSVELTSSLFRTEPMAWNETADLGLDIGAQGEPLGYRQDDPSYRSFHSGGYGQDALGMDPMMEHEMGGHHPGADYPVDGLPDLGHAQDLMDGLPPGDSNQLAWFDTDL
Description: (§1) The plate was incubated protected from light for 60 minutes at 20° C. prior to read. Reads were performed on a CLARIOstar plate reader (BMG Labtech) in duplicate, and data were fitted to a 1:1 binding model with hill slope using an in-house script. All provided concentrations are final concentrations.

[3] = target: B-cat-Halo (beta-catenin HaloTag fusion expressed in HEK293 cells) (UniProt P35222 1-781); experiment: NanoBRET Abs IC50 in HEK293 cells; Bcat-Halo / TCF4-Luc engagement, competitor TCF4-Luc
[4] = target: T3, beta-catenin in DLD1 TCF/LEF luciferase reporter cells (Homo sapiens (Human), UniProt P35222 1-781); experiment: cell-based or functional assay
T3 sequence: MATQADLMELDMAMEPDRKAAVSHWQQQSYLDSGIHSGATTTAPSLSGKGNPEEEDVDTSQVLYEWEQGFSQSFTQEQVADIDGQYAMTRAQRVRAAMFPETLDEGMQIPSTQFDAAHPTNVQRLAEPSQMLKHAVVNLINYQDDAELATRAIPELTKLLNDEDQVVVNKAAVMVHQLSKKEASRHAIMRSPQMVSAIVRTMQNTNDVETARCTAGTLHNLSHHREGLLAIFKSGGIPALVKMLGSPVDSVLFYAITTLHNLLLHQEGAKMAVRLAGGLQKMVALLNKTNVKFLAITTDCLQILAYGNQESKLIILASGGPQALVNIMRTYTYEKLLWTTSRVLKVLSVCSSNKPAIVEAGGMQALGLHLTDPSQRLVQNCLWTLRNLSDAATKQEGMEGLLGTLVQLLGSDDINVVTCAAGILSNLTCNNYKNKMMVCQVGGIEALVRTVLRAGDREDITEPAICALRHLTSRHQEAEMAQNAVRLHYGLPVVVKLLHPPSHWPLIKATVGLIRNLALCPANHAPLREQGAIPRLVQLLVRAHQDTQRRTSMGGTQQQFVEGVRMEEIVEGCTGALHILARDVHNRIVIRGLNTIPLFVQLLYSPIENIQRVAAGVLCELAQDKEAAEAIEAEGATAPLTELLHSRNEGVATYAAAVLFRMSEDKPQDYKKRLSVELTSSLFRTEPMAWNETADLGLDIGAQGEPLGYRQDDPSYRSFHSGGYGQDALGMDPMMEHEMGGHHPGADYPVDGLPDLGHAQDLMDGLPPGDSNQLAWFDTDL

[5] = target: T4, B-cat-Halo (beta-catenin HaloTag NanoBRET construct expressed in HEK293 cells) (UniProt P35222 1-781); experiment: NanoBRET target engagement in HEK293 cells (B-cat-Halo / TCF4-Luc); competitor TCF4-Luc
T4 construct: Transfected together with TCF4-Luc into HEK293 cells; not shown: HaloTag
T4 sequence (looked up): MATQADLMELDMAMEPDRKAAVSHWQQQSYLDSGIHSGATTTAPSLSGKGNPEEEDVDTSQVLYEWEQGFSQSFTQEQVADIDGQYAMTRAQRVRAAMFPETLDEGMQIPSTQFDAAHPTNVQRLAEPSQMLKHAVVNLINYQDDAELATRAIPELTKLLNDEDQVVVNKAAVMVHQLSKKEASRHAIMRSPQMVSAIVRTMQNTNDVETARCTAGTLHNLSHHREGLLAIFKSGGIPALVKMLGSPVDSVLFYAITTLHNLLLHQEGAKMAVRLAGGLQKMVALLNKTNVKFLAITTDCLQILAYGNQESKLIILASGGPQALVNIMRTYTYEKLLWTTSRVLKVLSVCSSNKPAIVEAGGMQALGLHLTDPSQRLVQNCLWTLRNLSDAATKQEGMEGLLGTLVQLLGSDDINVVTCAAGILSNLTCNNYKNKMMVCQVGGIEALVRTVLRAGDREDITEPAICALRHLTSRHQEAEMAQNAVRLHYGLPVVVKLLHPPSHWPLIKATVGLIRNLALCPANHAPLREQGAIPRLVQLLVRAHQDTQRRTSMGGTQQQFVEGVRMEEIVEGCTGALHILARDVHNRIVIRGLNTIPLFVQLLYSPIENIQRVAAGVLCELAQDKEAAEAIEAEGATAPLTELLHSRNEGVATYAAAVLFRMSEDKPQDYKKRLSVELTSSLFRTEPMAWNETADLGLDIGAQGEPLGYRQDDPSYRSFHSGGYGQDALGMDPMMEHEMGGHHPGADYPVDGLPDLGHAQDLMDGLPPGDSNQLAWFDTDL

[6] = target: T5, full-length beta-Catenin (Uniprot ID P35222) (Homo sapiens (Human), UniProt P35222 1-781); experiment: fluorescence polarization competition; 10 nM full-length beta-catenin + 10 nM 5FAM-TCF4(10-53) probe
T5 construct: also called bCat; B-Catenin
T5 sequence: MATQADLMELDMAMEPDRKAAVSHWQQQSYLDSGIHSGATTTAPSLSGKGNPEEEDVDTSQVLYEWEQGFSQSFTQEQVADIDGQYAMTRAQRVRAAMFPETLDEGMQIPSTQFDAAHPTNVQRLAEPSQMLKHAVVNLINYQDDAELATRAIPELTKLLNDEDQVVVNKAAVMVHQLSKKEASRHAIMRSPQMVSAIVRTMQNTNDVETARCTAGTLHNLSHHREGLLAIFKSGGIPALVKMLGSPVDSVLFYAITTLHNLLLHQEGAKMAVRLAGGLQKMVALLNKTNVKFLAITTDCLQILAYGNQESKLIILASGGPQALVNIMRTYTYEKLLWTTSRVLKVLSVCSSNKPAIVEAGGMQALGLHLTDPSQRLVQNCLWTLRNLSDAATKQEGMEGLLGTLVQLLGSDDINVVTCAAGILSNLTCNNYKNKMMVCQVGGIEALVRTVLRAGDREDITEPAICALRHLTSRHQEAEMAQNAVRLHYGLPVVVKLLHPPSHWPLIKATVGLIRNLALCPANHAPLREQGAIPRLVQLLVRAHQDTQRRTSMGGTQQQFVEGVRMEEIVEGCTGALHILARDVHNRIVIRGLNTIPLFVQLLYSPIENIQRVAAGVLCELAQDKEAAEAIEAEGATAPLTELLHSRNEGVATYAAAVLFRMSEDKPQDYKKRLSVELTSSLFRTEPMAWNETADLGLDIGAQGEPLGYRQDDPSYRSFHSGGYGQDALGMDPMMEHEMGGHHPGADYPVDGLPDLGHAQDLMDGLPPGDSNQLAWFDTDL
Description: as §1

[7] = target: T4, B-cat-Halo (beta-catenin HaloTag …); experiment: NanoBRET target engagement in HEK293 cells (B-cat-Halo / TCF4-Luc); absolute IC50; competitor TCF4-Luc

Binder: Ac-[αAllylPro]DI[B5]DEAA[Phe(3-OMe)]Q[S8]F[Bta]Q-NH2 (staple 1-4, 4-11, Stapled peptide composition) [I-724]
EC50 [2]: 0.114 µM

B1: I-505 (peptide)
peptide: Ac-[αAllylPro]DL[B5(6)]DEAAFQ[S8]F[Bta]Q-NH2
modifications: staple 1-4, 4-11
notes: Stapled peptide composition; also called Ac-PL3-Asp-Leu-B5-Asp-Glu-Ala-Ala-Phe-Gln-S8-Phe-BztA-Gln-NH2
DLD1 reporter assay Abs IC50 [4]: 10.8 µM
IC50 [5]: 5.6 µM
EC50 [6]: 0.023 µM
NanoBRET Abs IC50 [7]: 4.9 µM

Further lines, results first:

IC50 [1]: 0.168 µM
Binder: Ac-[αAllylPro]DF[B5(4)]DDLLFT[PyrS2″][Phe(2-Cl)][Bta]S-NH2 (staple 1-4, 4-11, '2C1F' is printed for 2ClF) [I-1158]

IC50 [3]: 28.4 µM
Binder: Ac-[αAllylPro]D[tBuAla][B5(5)]DTAA[Phe(3-CF3)]T[PyrS2″]F[Bta]S-NH2 (staple 1-4, 4-11) [I-1268: Ac-PL3-Asp-Npg-B5-Asp-Thr-Ala-Ala-3F3MeF-Thr-PyrS2-Phe-BztA-Ser-NH2]

From patent US20240116985A1 (published 2024)
